Where two headings read alike, the source gives them in different places. Values belong to the binder of their own block, whether it stands above or below them. Bridges are numbered along the chain shown (N, C = ends). Where no end group is shown, it is not given here. [ ]: non-standard residue; d: D form. Arg(NO2) = N=C(NCCC[C@H](N)C(=O)O)N[N+](=O)[O-]
Columns and labels:
[1] = molecular target: T1, human MCH-1R (human, UniProt Q99705 1-353); test: cell-based or functional assay
[2] = molecular target: T2, human melanin concentrating hormone type 2 receptor (MCH-2R) (human, UniProt Q969V1 1-340); test: cell-based or functional assay
T2 sequence (Q969V1 whole entry, form in doubt): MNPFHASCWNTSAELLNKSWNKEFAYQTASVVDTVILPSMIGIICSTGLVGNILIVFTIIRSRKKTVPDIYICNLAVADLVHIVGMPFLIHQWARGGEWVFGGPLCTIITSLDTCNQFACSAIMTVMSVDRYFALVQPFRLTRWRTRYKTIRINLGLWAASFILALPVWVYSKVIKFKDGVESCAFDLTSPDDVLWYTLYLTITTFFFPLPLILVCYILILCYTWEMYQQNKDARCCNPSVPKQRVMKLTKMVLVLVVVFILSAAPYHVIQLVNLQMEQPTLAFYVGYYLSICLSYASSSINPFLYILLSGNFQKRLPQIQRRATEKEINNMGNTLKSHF

[3] = molecular target: T2, human melanin concentrating hormone …; test: SPA competition with [125I]-human MCH (Phe13, Tyr19) on receptor membranes
Method: (§1) For the SPA-based assay, WGA-PVT beads (NEN Life Sciences Products) were resuspended in Dulbecco's PBS with calcium and magnesium (500 mg beads in 4 ml PBS). […] The suspension was mixed gently for 20 minutes, 12.3 ml of assay buffer and protease inhibitors were added (final concentration given): 2 μg/ml leupeptin, 10 μM phosphoramidon, 40 μg/ml bacitracin, 5 μg/ml aprotinin, 0.1 mM Pefabloc.
(§2) Coated beads were kept on ice until use. […] Binding reactions were allowed to proceed at room temperature for 3 hours. Quantitation was performed by scintillation counting (TopCount device).

[4] = molecular target: T1, human MCH-1R; test: cell-based or functional assay; remark: listed apart in the source
[5] = molecular target: T1, human MCH-1R; test: cell-based or functional assay; remark: listed apart in the source
[6] = molecular target: T1, human MCH-1R; test: SPA competition with [125I]-human MCH (Phe13, Tyr19) on receptor membranes
Method: as §1, §2

[7] = molecular target: T2, human melanin concentrating hormone …; test: as above; remark: listed apart in the source
Method: as §1, §2

[8] = molecular target: T1, human MCH-1R; test: as above; remark: listed apart in the source
Method: as §1, §2

[9] = molecular target: T2, human melanin concentrating hormone …; test: cell-based or functional assay; remark: listed apart in the source
[10] = molecular target: T2, human melanin concentrating hormone …; test: cell-based or functional assay; remark: listed apart in the source
[11] = molecular target: T1, human MCH-1R; test: cell-based or functional assay; remark: listed apart in the source
[12] = molecular target: T2, human melanin concentrating hormone …; test: SPA competition with [125I]-human MCH (Phe13, Tyr19) on receptor membranes; remark: listed apart in the source
Method: as §1, §2

[13] = molecular target: T1, human MCH-1R; test: as above; remark: listed apart in the source
Method: as §1, §2

T1 sequence (Q99705 whole entry, form in doubt): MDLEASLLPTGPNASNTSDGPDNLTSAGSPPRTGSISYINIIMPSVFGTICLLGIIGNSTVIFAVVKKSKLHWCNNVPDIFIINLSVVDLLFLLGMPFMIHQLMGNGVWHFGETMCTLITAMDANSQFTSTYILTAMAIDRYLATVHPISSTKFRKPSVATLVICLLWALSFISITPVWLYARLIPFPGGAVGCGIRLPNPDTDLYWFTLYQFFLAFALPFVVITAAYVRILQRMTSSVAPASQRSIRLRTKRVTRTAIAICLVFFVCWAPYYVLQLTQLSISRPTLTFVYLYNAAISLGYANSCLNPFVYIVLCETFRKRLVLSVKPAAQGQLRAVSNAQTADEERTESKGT

B1: SEQ. ID. NO. 37 (peptide)
peptide: Ac-RCML[dA][Arg(NO2)]VYRPC-NH2
modifications: disulfide 2-11 (inferred)
notes: also called D-Ala^10, Arg(NO2)^11
- Activation % at 10 µM (aequorin functional assay) [1]: 0.1%
- EC50 (aequorin functional assay) [1]: > 10000 nM
- Activation % at 10 µM (aequorin functional assay) [2]: 34%
- EC50 (aequorin functional assay) [2]: 260 nM
- IC50 [3]: 490 nM

B3: human MCH (melanin-concentrating hormone), SEQ. ID. NO. 1 (ligand)
peptide: DFDMLRCMLGRVYRPCWQV
modifications: disulfide 7-16 (inferred)
notes: cyclic 19-amino acid peptide; also called hMCH; mammalian MCH
- Activation % at 10 µM (aequorin functional assay) [2]: 100%
- EC50 (aequorin functional assay) [2]: 30.7 nM
- Activation % at 10 µM (aequorin functional assay) [4]: 100%
- Activation % at 10 µM (aequorin functional assay) [9]: 100%
- EC50 (aequorin functional assay) [9]: 30.7 nM
- Activation % at 10 µM (aequorin functional assay) [5]: 100%
- Activation % at 10 µM (aequorin functional assay) [10]: 100%
- EC50 (aequorin functional assay) [10]: 44.7 nM
- Activation % at 10 µM (aequorin functional assay) [11]: 100%
- IC50 [3]: 0.5 nM
- IC50 [7]: 0.5 nM
- IC50 [12]: 0.9 nM

B5: SEQ. ID. NO. 40 (peptide)
peptide: XCMLGRVYRPC
modifications: not fully specified; (?NH2)-Arg at position 6
- Activation % at 10 µM (aequorin functional assay) [9]: 103%
- Activation % at 10 µM (aequorin functional assay) [5]: 49%

Now from value to binder:

- Activation % at 10 µM (aequorin functional assay) [4]: 99%
- EC50 (aequorin functional assay) [4]: 20 nM
- Activation % at 10 µM (aequorin functional assay) [5]: 99%
- EC50 (aequorin functional assay) [5]: 20 nM
- IC50 [3]: 2 nM
- IC50 [6]: 1.4 nM
- IC50 [7]: 2 nM
- IC50 [8]: 0.5 nM
B2: truncated form of human MCH, SEQ. ID. NO. 2 (peptide)
peptide: Ac-RCMLGRVYRPC-NH2
modifications: disulfide 2-11 (inferred)
notes: positions numbered 6-16 as in hMCH

- Activation % at 10 µM (aequorin functional assay) [10]: 99%
- EC50 (aequorin functional assay) [10]: 58.9 nM
- Activation % at 10 µM (aequorin functional assay) [11]: 100%
- EC50 (aequorin functional assay) [11]: 17.4 nM
- IC50 [12]: 8.7 nM
- IC50 [13]: 0.4 nM
B4: SEQ. ID. NO. 56 (peptide)
peptide: DFDMLRCMLGRVYRPCWQA
modifications: disulfide 7-16
notes: also called Ala^19

- Activation % at 10 µM (aequorin functional assay) [10]: 92%
- EC50 (aequorin functional assay) [10]: 1.5 nM
- Activation % at 10 µM (aequorin functional assay) [11]: 97%
- EC50 (aequorin functional assay) [11]: 40 nM
- IC50 [12]: 0.07 nM
- IC50 [13]: 0.6 nM
B6: SEQ. ID. NO. 57 (peptide)
peptide: DFDMLRCMLGRVFRPCYQV
modifications: disulfide 7-16
notes: label prints Tyr^17 while the radioligand is Phe^13, Tyr^19; also called Phe^13, Tyr^17
